Experiment: soluble on expression in E. coli; label from the status in PepcDB or PDB records

Sequence	soluble on expression in E. coli
MCFSFIMPPAMADILDIWAVDSQIASDGSIPVDFLLPTGIYIQLEVPREATISYIKQMLWKQVHNYPMFNLLMDIDSYMFACVNQTAVYEELEDETRRLCDVRPFLPVLKLVTRSCDPGEKLDSKIGVLIGKGLHEFDSLKDPEVNEFRRKMRKFSEEKILSLVGLSWMDWLKQTYPPEHEPSIPENLEDKLYGGKLIVAVHFENCQDVFSFQVSPNMNPIKVNELAIQKRLTIHGKEDEVSPYDYVLQVSGRVEYVFGDHPLIQFQYIRNCVMNRALPHFILVECCKIKKMYEQEMIAIEAAINRNSSNLPLPLPPKKTRIISHVWENNNPFQIVLVKGNKLNTEETVKVHVRAGLFHGTELLCKTIVSSEVSGKNDHIWNEPLEFDINICDLPRMARLCFAVYAVLDKVKTKKSTKTINPSKYQTIRKAGKVHYPVAWVNTMVFDFKGQLRTGDIILHSWSSFPDELEEMLNPMGTVQTNPYTENATALHVKFPENKKQPYYYPPFDKIIEKAAEIASSDSANVSSRGGKKFLPVLKEILDRDPLSQLCENEMDLIWTLRQDCREIFPQSLPKLLLSIKWNKLEDVAQLQALLQIWPKLPPREALELLDFNYPDQYVREYAVGCLRQMSDEELSQYLLQLVQVLKYEPFLDCALSRFLLERALGNRRIGQFLFWHLRSEVHIPAVSVQFGVILEAYCRGSVGHMKVLSKQVEALNKLKTLNSLIKLNAVKLNRAKGKEAMHTCLKQSAYREALSDLQSPLNPCVILSELYVEKCKYMDSKMKPLWLVYNNKVFGEDSVGVIFKNGDDLRQDMLTLQMLRLMDLLWKEAGLDLRMLPYGCLATGDRSGLIEVVSTSETIADIQLNSSNVAAAAAFNKDALLNWLKEYNSGDDLDRAIEEFTLSCAGYCVASYVLGIGDRHSDNIMVKKTGQLFHIDFGHILGNFKSKFGIKRERVPFILTYDFIHVIQQGKTGNTEKFGRFRQCCEDAYLILRRHGNLFITLFALMLTAGLPELTSVKDIQYLKDSLALGKSEEEALKQFKQKFDEALRESWTTKVNWMAHTVRKDYRS	soluble
MSLKEVIFVLLNEFADWEGAFIAACLNQGVMPGSPVPYKVKTLSITKEPVSSIGGFRVLPDYDLKDMPEDYAGLILIGGMSWFSPEAELIAPLIEKAIKDKKVVGGICNASVFLAMHGFLNNVKHTSNTIDYLKQHVGERYTGDSNYVDQQAVRDGKIITANGTGQLEFCREILYALEADTAEAIEKSYLFYKNGEGHHHHHH	soluble
MGVYDYKNFGTADSKALFSDAMAITLYSYHNLDNGFAAGYQHNGFGLGLPATLVTALLGGTDSQGVIPGIPWNPDSEKLALDAVKKAGWTPITASQLGYDGKTDARGTFFGEKAGYTTAQVEILGKYDAQGHLTEIGIAFRGTSGPRENLILDSIGDVINDLLAAFGPKDYAKNYVGEAFGNLLNDVVAFAKANGLSGKDVLVSGHSLGGLAVNSMADLSGGKWGGFFADSNYIAYASPTQSSTDKVLNVGYENDPVFRALDGSTFTGASVGVHDAPKESATDNIVSFNDHYASTAWNLLPFSILNIPTWISHLPTAYGDGMNRIIESKFYDLTSKDSTIIVANLSDPARANTWVQDLNRNAETHKGSTFIIGSDSNDLIQGGSGNDYLEGRAGNDTFRDGGGYNVILGGAGNNTLDLQKSVNTFDFANDGAGNLYVRDANGGISITRDIGSIVTKEPGFLWGLFKDDVTHSVTASGLKVGSNVTQYDASVKGTNGADTLKAHAGGDWLFGLDGNDHLIGGVGNDVFVGGAGNDLMESGGGADTFLFNGAFGQDRVVGFTSNDKLVFLGVQGVLPNDDFRAHASMVGQDTVLKFGGDSVTLVGVALNSLSADGIVIA	soluble
MGHHHHHHSHMQLVRDLLEVTSGLISDDIINMRNDLYQTPLHLAVITKQEDVVEDLLRAGADLSLLDRLGNSVLHLAAKEGHDKVLSILLKHKKAALLLDHPNGDGLNAIHLAMMSNSLPCLLLLVAAGADVNAQEQKSGRTALHLAVEHDNISLAGCLLLEGDAHVDSTTYDGTTPLHIAAGRGSTRLAALLKAAGADPLVENFEPLYDL	not soluble
MNKLAVLYAEHIATLQKRTREIIERENLDGVVFHSGQAKRQFLDDMYYPFKVNPQFKAWLPVIDNPHCWIVANGTDKPKLIFYRPVDFWHKVPDEPNEYWADYFDIELLVKPDQVEKLLPYDKARFAYIGEYLEVAQALGFELMNPEPVMNFYHYHRAYKTQYELACMREANKIAVQGHKAARDAFFQGKSEFEIQQAYLLATQHSENDNPYGNIVALNENCAILHYTHFDRVAPATHRSFLIDAGANFNGYAADITRTYDFTGEGEFAELVATMKQHQIALMNQLAPGKLYGELHLDCHQRVAQTLSDFNIVDLSADEIVAKGITSTFFPHGLGHHIGLQVHDVGGFMADEQGAHQEPPEGHPFLRCTRKIEANQVFTIEPGLYFIDSLLGDLAATDNNQHINWDKVAELKPFGGIRIEDNIIVHEDSLENMTRELRLRLTTHSLRGLSAPQFSINDPAVMSEYSYPSEPLSYEEEIKKSTFIVHVRTRRILVRRRTLSPILIAVTPMPAITAGLM	soluble
MAHHHHHHMDYCEEAYNKLIEFLSENKTEKMMESSLSSALAVALCYNHRIVNMYENMKGRIFLLDISNETYVYTNQYTQLMNIAYNAKRNNIIIDVFSLNCKIQLLEQICNITNGLYIDSSIFFNVNCTDNIEDVLTQTMIFWFLPSNNTRKYFSNTYLNDDTNIAVCSCHNKQVDIAYICSCCLAIYCSEKDEKTNKERTSCFVCKTRFTKALLRNKVVSDLDFSSI	not soluble
MTQTASLFLQDSYREECLARITDVVEDGLLLDQTVFYPQGGGQAGDSGWLTLADGTRLRIADTRKGTEAGAGRDAILHIPAEGQATVLRAMKPGEVVLAQIDWVRRYRHMRLHTAAHMLCAVLPYPVNGCSITDEHARLDFVTSEPLSREAIDSALAAMVEAAHPVSIDTMSDDALRARPDLVRTMSVQPPMGAGQVRLVSIKDTDLQPCGGTHVANTEEVGVVRVSKMEKKSARTRRVVLVLG	not soluble
MSASRQRPGNHLLPTLFDRLCDDAPNQKRDHGISVSPVQIKEIIRRDLSFLLNTVSHEDDIDAARYPYAAASVLNYGLPPLAGSFLYEHKWDDIRRAILRTITRFEPRLKASTLQIIPLQDERRQSGHNTLQFEIRGEILTQPYPTAFRVRSALDMEQSRITFF	not soluble
MKKLTLREQQLVCLNILDYFHALCERYKISYSLGGGTLIGAIRHKGFIPWDDDIDVYMHRDEYQRFVDVWFQETHEHYNMETAEDILAQYTGEMAKIFDCRTQITDAKGRKSPMFMDIFIYDGVPNEPKIIYPLMKKHRRIKLRFSSCKKRWLRAKENTVQKAILNKLSHFLFSKMQKNLAQFQIKYPIKQCDYIGLVLSDYGGWQKSYMPKEYFNHVIYKEFEGRQFQVMNGYHEHLTQYYGDYMKLPPEEDQKPHHIQEAYILLEHHHHHH	not soluble
MGSDKIHHHHHHMIRINVVGFKGGSGKSTISYHLARQLSEYYNVVLVDKTYSGTISRIYNINNNIFSFLKGRNELFYINKNNLSVINMSFLNEDDLNGIDFNAFKYLYSKLTKDSDIVIVDHSSIPHDFATEIELKAFMENFRNFAYNTVLVLSGDEIPIKKYLNYTVLLNDFVKNYAEKILGISLPTDVKFLKIVAVIINKILKGQESKLEEFIRGDEILQRSARFIIPYYLSLTQRHFKDIDPPKEISDITRYILDFLREPTSIL	not soluble
HPEKCSECSYSCSSKAALRIHERIHCTDRPFKCNYCSFDTKQPSNLSKHMKKFHGDM	soluble
MSLRGQVHSVFVVVPRFNLTTLITMIETMRIGNYLSSERLFSWEVTSFDGLNLGASNGVRVHLDVEPDQTAPADQVFVLASWGGEHYQNKALASWLRKRARQGERICAVELGCYLVARAGLMDGKEATTHWSWINGFQEKFDQISVVEQLFTIDGRILTCAGGMAGVDLMLRLIEQSHGAGFSGEIADQMLHNPIRKGSSSQRRTMGRGTESILPLVRQAMTLIERNIEEPLTVPQIAAALDVSQRQLERQFKKHVGCTVVQFGLLRRLQNARVLLIATELSVREIATASGFNTLSHFSYSFSKFFGRRPSDYREAWPSNEAAPTWPGTLSDFLHAINSGDKREGHHHHHH	not soluble
MAHHHHHHMRSSQFLLSGLRRTAILMTISDEYIPRAFPVKSTTGLAGIAVEPLWKPKLLAAASELQAFLTSSDIPPESTYYNIAMTLVKRVNHGIKECQDDWCTLEKRYFWGWPVEYILQVTWRELETAQKWNEWRFWELDPEQVKKVAREDQNIGREGLGYNSPWEQVVREDFDKRKKALTQEEMAELKRMDTERMARETAAYKERKDRIRDDLEKARGDMLKKFLNKRFAVDKDLQRMQPGKRYSGKTADDLIAELKSSVENNPQKSDLGK	not soluble
MGSDKIHHHHHHMRKPKITVIGGGTGSPVILKSLREKDVEIAAIVTVADDGGSSGELRKNMQQLTPPGDLRNVLVAMSDMPKFYEKVFQYRFSEDAGAFAGHPLGNLIIAGLSEMQGSTYNAMQLLSKFFHTTGKIYPSSDHPLTLHAVFQDGTEVAGESHIVDHRGIIDNVYVTNALNDDTPLASRRVVQTILESDMIVLGPGSLFTSILPNIVIKEIGRALLETKAEIAYVCNIMTQRGETEHFTDSDHVEVLHRHLGRPFIDTVLVNIEKVPQEYMNSNRFDEYLVQVEHDFVGLCKQVSRVISSNFLRLENGGAFHDGDLIVDELMRIIQVKK	not soluble
MVMVNFTAGKWISEPKVSEVTSEFVSITTEPKTDFWQRSYYGFRNENAPALLIDSKDNFTFTAKVSFAYQQLFDQCGLIIYLDNENWFKASIEYENQSFSRLGSVVTNLGYSDWATTDIPLPKEIWYRLSRRGPDFLIESSFDGLVFNQMRIFHLHRLGETTIEMGKCNPPLPTQKVVSFGVYACSPSESSFTAKFTEMSLEPCKWLAHLEHHHHHH	soluble
MTMSELGSLFEAGYHDILQLLAGQGKSPSGPPFARYFGMSAGTFEVEFGFPVEGGVEGSGRVVTGLTPSGKAASSLYIGPYGEIEAVYDALMKWVDDNGFDLSGEAYEIYLDNPAETAPDQLRTRVSLEHHHHHH	not soluble
MIDHNIRTGKAFFGRRKGKRLRNSQLVLIKKLFPTLDINLNNSVPLNLTSLFSRKVKEVRLEIGFGGGEHLLHEMKHFPQTGFIGIEPFINGMAKMLMSLEEHKQYQNQLRLYNDDATGLLDWLPNASLDGIDLFYPDPWPKKKHWKRRFINMKNLNRFARVLKTGKKFRFASDIESYVNWTLYHCSNHHSFEWEAKNPKDWKTPYTLWSGTRYEAKALREGRAPTYLTFIKK	not soluble
MVISLGDDITTVLKTVQQTLFALRDEHEAATRILEANLINSDSSEPSLPSEKMGLIDESLGKVMDGGDEASLLIMMDKLMQSYDVQLSKNHESIRLLRQENTWLLDELTTTQRKLQESERTVAHLEEERDHYKFQDSMNYLNSDFQHTTSVDATPMMVDTLQELGFGPEEEDQNNNQADQGCRSSSFSNPISNDYQLPTRLQTLQNLVIQYMEQGRFEVAIPLCKQALEDVVKVHGNVHLDVATMLNVLAIVYRNQENFKDAAIYLEKALSIRVQCCGENHHSVAATLNNLAIAYGKRGKYKESEPLCKRALEIRKNLLGPNHPDVAKQLTNLGIVTQQLEKYEETENYFKQALSIYNRAFPENHQNVIKTKNQLASVFLKQGKYQEAEEMYKNILSKVAITGNKPIWRIAEDREERQRNGIPKVDDESFNVNPTTVMDSNVMSTIKNLAAVYRKQGKEEAAGTLEEALGAKKQINGGADHTNSTASSVETSSAVAINPAQSGIKKRIMHFVGLNF	not soluble
MPNYDATHATSTETIHYVNEDGDQVFEDGGGKLDFTRTVTIDDVTNEVVEYGEWTPVTDDEFAAVTSPDKDGYTPDTSEVAAQKPDMTDGPDGTVKDVEVTVTYTANPAVATITYVDDDENGKTVKTLEHHHHHH	soluble

Source: the DeepSol protein solubility set
